Tests used:
[1] = target: T1, A subunit of Enterococcus hirae V-ATPase, wild type (Enterococcus hirae, UniProt Q08636 1-593); experiment: native gel or EMSA; purified A3B3 and DF complexes mixed in a 1:5 molar ratio, 1 h on ice; formation of A3B3DF (V1) confirmed by basic native-PAGE; conditions: both partners purified
T1 construct: A subunit of Enterococcus hirae V-ATPase; synthetic gene with E. coli codon usage in pET23d; also called A monomer; source: E. coli BL21 (DE3), purified
T1 sequence (looked up): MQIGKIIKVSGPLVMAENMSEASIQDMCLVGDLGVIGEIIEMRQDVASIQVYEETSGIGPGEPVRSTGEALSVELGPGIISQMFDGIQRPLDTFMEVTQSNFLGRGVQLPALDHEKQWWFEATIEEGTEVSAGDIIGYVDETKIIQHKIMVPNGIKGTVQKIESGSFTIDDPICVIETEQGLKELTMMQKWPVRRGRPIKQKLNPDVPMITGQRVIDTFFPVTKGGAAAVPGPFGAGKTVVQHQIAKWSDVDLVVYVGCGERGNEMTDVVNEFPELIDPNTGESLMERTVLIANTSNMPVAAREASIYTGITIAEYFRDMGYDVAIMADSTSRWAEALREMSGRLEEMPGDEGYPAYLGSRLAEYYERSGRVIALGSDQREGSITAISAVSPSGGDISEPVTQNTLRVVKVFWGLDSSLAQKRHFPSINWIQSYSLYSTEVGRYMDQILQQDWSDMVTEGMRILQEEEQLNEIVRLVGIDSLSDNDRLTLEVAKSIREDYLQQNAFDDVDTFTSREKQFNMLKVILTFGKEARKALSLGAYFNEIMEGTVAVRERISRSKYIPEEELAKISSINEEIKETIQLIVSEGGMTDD

[2] = target: T2, B subunit of Enterococcus hirae V-ATPase, wild type (Enterococcus hirae, UniProt Q08637 1-458); experiment: as above; conditions: both partners purified
T2 construct: B subunit of Enterococcus hirae V-ATPase; synthetic gene with E. coli codon usage in pET23d; also called B monomer; source: E. coli BL21 (DE3), purified
T2 sequence (looked up): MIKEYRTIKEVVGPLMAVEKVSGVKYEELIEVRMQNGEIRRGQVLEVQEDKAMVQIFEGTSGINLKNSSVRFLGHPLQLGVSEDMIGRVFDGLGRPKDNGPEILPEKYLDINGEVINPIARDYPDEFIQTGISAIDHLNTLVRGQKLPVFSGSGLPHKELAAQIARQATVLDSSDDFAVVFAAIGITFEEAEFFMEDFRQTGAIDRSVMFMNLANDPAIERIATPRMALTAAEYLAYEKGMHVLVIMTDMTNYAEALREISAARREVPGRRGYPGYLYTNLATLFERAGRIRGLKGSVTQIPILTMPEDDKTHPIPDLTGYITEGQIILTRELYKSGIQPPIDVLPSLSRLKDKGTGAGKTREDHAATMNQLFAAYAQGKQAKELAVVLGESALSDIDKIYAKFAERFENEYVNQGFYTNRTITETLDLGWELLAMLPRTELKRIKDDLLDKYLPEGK

B1: D subunit of Enterococcus hirae V-ATPase, wild type (natural protein, UniProt P43435 1-210, looked up)
chain: MRLNVNPTRMELTRLKKQLTTATRGHKLLKDKQDELMRQFILLIRKNNELRQAIEKETQTAMKDFVLAKSTVEEAFIDELLALPAENVSISVVEKNIMSVKVPLMNFQYDETLNETPLEYGYLHSNAELDRSIDGFTQLLPKLLKLAEVEKTCQLMAEEIEKTRRRVNALEYMTIPQLEETIYYIKMKLEENERAEVTRLIKVKNMGTEE
notes: D subunit of Enterococcus hirae V-ATPase; Was never handled alone; stands here for the pairs of subunits inside the DF and A3B3DF complexes; source: E. coli cell-free protein expression system, synthesized together with F, purified
binding result [1]: binds | binding result [2]: binds
